# Source: patent publication US10905653B2, “Sequentially decomposable polypeptide-based nanocarriers with protective shell and preparation thereof” (National Tsing Hua University, priority 2016, dated 2021)
# Structures can show the parent of a compound that is named as a salt. No end group written: not given here.
# Columns and labels:
# [1] = test system: human breast adenocarcinoma cells MDA-MB-231; experiment: Cell viability assay (MTS assay), anti-tumor activity; assay type: cell-based; details: 10 μg/ml DOX equivalent, 24 hours treatment
# Description: The anti-tumor activity of the drug-loaded polypeptide-based nanocarrier with protective shell of the present invention was evaluated in this example by cell viability assay (MTS assay) on human breast adenocarcinoma cells MDA-MB-231 cells. The cells were seeded in a 96-well plate (5×10^3 cells/well) and cultured in L-15 medium supplemented with 10% FBS and 1% penicillin and streptomycin at 37° C. for 1 day. Next, the medium was removed, and cells were treated with 100 μl L-15 medium containing DOX.HCl, the DOX-loaded polypeptide-based nanocarriers with protective shell of calcium phosphate and with LyP-1 peptide (M-DOX NP w/LyP-1), or the DOX-loaded polypeptide-based nanocarriers with protective shell of calcium phosphate and without LyP-1 peptide (M-DOX NP w/o LyP-1) at concentrations equivalent to 10 μg/ml DOX for 24 hours. The cells were rinsed with PBS 2 times and incubated with L-15 medium supplemented with 10% FBS and 1% penicillin and streptomycin at 37° C. for 24 hours, 48 hours, or 72 hours. To carry out the cell viability assay, the medium was first discarded from the 96-well plate, 10 μl MTS solution and 90 μl L-15 medium were added for incubation at 37° C. for 2.5 hours, and the solution was transferred to a new 96-well plate for measurement of light absorption at 490 nm. The assay was repeated 3 times.
# [2] = TNBS assay, acidic hydrolysis of the cis-aconityl linkage; assay type: physicochemical
# Description: TNBS (2,4,6-trinitrobenzene sulfonic acid) assay was performed in this example to analyze the acidic hydrolysis of the cis-aconityl linkage in the polypeptide-based long chain copolymer in conditions of different pH values. TNBS reacts with primary amines to yield a soluble orange colored product. Since PEG3400 released from hydrolyzed PEG3400-aconitic acid carries a free amine group at the end, the hydrolysis level of PEG3400-aconitic acid at different pH values is determined based on the amount of the colored product formed in TNBS assay. PEG3400-aconitic acid (2 mg/ml) was first dissolved in deionized water with a pH value of 5.0, 6.5, or 7.4 for hydrolysis. The hydrolysis reactions of 3 hours, 6 hours, 12 hours, and 24 fours were stopped by adjusting the pH value of the PEG3400-aconitic acid hydrolysate solutions to 8.2 and freezing. Sodium bicarbonate was added to the abovementioned hydrolysate solutions to a final concentration of 0.1 M (pH 8.2), and a 5% w/v TNBS solution was then added for reaction at 37° C. for 1 hour. The reaction was terminated using 1.0 N HCl, so that the volume ratio of the PEG3400-aconitic acid hydrolysate solution, the TNBS solution, and HCl was 4:2:1. Absorbance of the reaction-terminated solutions at 335 nm was measured with an enzyme-linked immunosorbent assay (ELISA) reader (Victor X3 2030 Multilabel Reader, PerkinElmer, Waltham, Mass., USA). According to the standard curve obtained from amine samples with known concentration, free amine group of PEG3400 in the reaction-terminated solutions was quantified and the hydrolysis level of PEG3400-aconitic acid at each pH was calculated.
Compound,viability of the breast adenocarcinoma cells ([1]; kept incubated for 72 hours),"viability of the breast adenocarcinoma cells ([1]; first time point, post-incubation time not given)","breakage of the cis-aconityl linkage ([2]; pH 5, within 12 hours)","breakage of the cis-aconityl linkage ([2]; pH 6.5, within 12 hours)","breakage of the cis-aconityl linkage ([2]; pH 6.5, within 24 hours)","breakage of the cis-aconityl linkage ([2]; pH 7.4, within 12 hours)"
"COc1cccc2c1C(=O)c1c(O)c3c(c(O)c1C2=O)C[C@@](O)(C(=O)CO)C[C@@H]3O[C@H]1C[C@H](N)[C@H](O)[C@H](C)O1 [DOX.HCl, doxorubicin hydrochloride]",5.4%,14.3%,–,–,–,–
"PEG3400-aconityl linkage-polypeptide E15-H10-L10 (EEEEEEEEEEEEEEEHHHHHHHHHHLLLLLLLLLL; also: PEG3400 via aconityl linkage, site not given here) [polypeptide-based long chain copolymer]",–,–,43.33%,13.28%,21%,about 1.97%
